According to article PMC3401385 (Cell Reports, 2012):

Legend:
[1] = target: T1, eIF2 ternary complex (Saccharomyces cerevisiae, UniProt P20459)
T1 chain 1: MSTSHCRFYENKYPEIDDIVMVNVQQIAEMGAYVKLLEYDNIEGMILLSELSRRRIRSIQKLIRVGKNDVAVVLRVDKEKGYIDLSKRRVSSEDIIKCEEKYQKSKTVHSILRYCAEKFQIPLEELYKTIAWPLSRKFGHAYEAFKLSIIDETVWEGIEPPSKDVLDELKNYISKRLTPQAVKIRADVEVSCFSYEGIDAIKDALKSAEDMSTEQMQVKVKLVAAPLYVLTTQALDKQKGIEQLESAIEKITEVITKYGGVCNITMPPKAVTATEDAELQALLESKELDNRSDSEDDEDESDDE
T1 chain 2: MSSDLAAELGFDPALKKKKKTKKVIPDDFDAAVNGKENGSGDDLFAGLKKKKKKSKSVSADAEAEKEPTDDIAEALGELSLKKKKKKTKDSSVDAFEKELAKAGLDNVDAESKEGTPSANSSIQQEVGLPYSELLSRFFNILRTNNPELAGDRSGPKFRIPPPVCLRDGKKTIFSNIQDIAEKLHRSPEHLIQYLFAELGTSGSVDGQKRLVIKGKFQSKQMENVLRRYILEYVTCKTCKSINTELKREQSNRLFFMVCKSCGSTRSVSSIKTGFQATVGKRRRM
T1 chain 3: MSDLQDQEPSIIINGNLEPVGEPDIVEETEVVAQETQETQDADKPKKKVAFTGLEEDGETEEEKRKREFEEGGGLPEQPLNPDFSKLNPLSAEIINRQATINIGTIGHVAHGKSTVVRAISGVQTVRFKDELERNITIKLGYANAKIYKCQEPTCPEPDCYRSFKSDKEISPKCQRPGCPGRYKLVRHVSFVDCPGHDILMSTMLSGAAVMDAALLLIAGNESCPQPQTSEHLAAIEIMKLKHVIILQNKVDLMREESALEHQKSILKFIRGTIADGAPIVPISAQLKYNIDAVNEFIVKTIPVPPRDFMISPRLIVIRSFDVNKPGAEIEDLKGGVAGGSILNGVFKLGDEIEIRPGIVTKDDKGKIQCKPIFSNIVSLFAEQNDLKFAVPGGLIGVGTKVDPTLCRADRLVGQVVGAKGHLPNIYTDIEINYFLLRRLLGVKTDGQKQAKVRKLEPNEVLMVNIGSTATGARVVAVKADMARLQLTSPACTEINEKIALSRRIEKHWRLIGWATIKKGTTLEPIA

[2] = target: T2, eIF2β K2K3 (Saccharomyces cerevisiae, UniProt P09064); assay: ITC
T2 chain: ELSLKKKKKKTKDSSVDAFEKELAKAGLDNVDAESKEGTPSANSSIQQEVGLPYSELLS

[3] = target: human eIF5-CTD (carboxyl-terminal domain of eukaryotic initiation factor 5), wild type (human, UniProt P55010 225-407); assay: ITC
Chain of human eIF5-CTD (carboxyl-terminal domain of eukaryotic initiation factor 5), wild type (P55010 225-407): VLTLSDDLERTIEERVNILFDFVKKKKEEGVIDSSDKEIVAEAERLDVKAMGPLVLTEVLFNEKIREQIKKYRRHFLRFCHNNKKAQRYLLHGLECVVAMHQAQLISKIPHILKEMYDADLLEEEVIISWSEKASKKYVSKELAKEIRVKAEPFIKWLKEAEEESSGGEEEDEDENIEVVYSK

B1: eIF5 (protein)
chain: MSINICRDNHDPFYRYKMPPIQAKVEGRGNGIKTAVLNVADISHALNRPAPYIVKYFGFELGAQTSISVDKDRYLVNGVHEPAKLQDVLDGFINKFVLCGSCKNPETEIIITKDNDLVRDCKACGKRTPMDLRHKLSSFILKNPPDSVSGSKKKKKAATASANVRGGGLSISDIAQGKSQNAPSDGTGSSTPQHHDEDEDELSRQIKAAASTLEDIEVKDDEWAVDMSEEAIRARAKELEVNSELTQLDEYGEWILEQAGEDKENLPSDVELYKKAAELDVLNDPKIGCVLAQCLFDEDIVNEIAEHNAFFTKILVTPEYEKNFMGGIERFLGLEHKDLIPLLPKILVQLYNNDIISEEEIMRFGTKSSKKFVPKEVSKKVRRAAKPFITWLETAESDDDEEDDE
Kd [1]: 0.1 µM

B2: eIF5 CTD (protein)
chain: VNSELTQLDEYGEWILEQAGEDKENLPSDVELYKKAAELDVLNDPKIGCVLAQCLFDEDIVNEIAEHNAFFTKILVTPEYEKNFMGGIERFLGLEHKDLIPLLPKILVQLYNNDIISEEEIMRFGTKSSKKFVPKEVSKKVRRAAKPFITWLETAESDDDEEDDE
Kd [2]: ~4 µM

B3: eIF2β-K2K3 (eIF2β residues 53-135, with the K2 and K3 lysine boxes) (domain or fragment, UniProt P20042 53-135, looked up)
chain: DLEADEEDTRKKDASDDLDDLNFFNQKKKKKKTKKIFDIDEAEEGVKDLKIESDVQEPTEPEDDLDIMLGNKKKKKKNVKFPD
Kd [3]: ~4 µM
